In this test the target is T1, full-length human kinesin-1 heavy chain (KIF5B) (human, UniProt P33176 1-963, LD555, LD655 or Alexa488 label (imaging assays)).
T1 sequence (looked up): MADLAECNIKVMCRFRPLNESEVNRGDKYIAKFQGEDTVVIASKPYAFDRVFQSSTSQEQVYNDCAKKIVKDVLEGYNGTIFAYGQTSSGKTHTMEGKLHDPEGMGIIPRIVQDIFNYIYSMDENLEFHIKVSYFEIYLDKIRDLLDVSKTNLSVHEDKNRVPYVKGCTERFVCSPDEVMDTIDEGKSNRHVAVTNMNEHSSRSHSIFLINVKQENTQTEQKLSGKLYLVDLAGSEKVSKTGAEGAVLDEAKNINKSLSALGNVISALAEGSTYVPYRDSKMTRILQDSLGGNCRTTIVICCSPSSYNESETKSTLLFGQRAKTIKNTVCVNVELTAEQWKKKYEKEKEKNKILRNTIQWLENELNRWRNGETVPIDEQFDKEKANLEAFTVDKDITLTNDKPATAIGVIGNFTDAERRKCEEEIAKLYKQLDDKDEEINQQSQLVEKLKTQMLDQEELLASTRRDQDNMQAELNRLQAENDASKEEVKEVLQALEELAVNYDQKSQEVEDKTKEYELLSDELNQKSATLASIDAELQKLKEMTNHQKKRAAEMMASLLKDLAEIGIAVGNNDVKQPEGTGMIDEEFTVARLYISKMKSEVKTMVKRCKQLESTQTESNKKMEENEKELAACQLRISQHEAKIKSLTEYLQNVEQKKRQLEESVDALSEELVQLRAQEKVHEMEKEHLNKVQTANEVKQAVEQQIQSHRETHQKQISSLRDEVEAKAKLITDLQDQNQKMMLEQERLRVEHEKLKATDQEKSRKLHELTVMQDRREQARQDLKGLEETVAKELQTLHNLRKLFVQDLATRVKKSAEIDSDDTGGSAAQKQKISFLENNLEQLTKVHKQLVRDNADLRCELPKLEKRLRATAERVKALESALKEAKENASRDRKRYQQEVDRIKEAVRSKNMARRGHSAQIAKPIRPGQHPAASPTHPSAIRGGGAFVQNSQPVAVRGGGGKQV
In words: single-molecule colocalisation on microtubules.

B1: TRAK1^1-532 (domain or fragment, human, UniProt Q9UPV9 1-532, looked up)
chain: MALVFQFGQPVRAQPLPGLCHGKLIRTNACDVCNSTDLPEVEIISLLEEQLPHYKLRADTIYGYDHDDWLHTPLISPDANIDLTTEQIEETLKYFLLCAERVGQMTKTYNDIDAVTRLLEEKERDLELAARIGQSLLKKNKTLTERNELLEEQVEHIREEVSQLRHELSMKDELLQFYTSAAEESEPESVCSTPLKRNESSSSVQNYFHLDSLQKKLKDLEEENVVLRSEASQLKTETITYEEKEQQLVNDCVKELRDANVQIASISEELAKKTEDAARQQEEITHLLSQIVDLQKKAKACAVENEELVQHLGAAKDAQRQLTAELRELEDKYAECMEMLHEAQEELKNLRNKTMPNTTSRRYHSLGLFPMDSLAAEIEGTMRKELQLEEAESPDITHQKRVFETVRNINQVVKQRSLTPSPMNIPGSNQSSAMNSLLSSCVSTPRSSFYGSDIGNVVLDNKTNSIILETEAADLGNDERSKKPGTPGTPGSHDLETALRRLSLRRENYLSERRFFEEEQERKLQELAEKGE
modifications: LD555 dye on the SNAP tag (imaging assays)
In the case of B1, the binding result was “binds”.
